Laboratory results published in the supplement of paper PMC9732359.
± gives the uncertainty stated by the source.

Experiment: protein stability index of a GFP-peptide fusion (yeast GPS) (PSI 1-4); higher = more stable; sorted into four equal gates, so the index is relative within each strain
Outline: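 Plasmids in a pooled yeast library fused tiled 17-residue yeast protein peptides downstream of GFP and also expressed Cherry. Mid-log cultures grown without leucine were sorted into four equal gates by GFP/Cherry fluorescence ratio. Each gate's plasmids were PCR-amplified and Illumina-sequenced, and reads were matched to strains by barcodes. The protein stability index is derived by multiplying each gate's read frequency by its gate number and summing the results.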

VKVARLAGKYIPNLTAK [FAS1]
protein stability index (doa10∆): 3.34 ± 0.25 | protein stability index (pdr5∆): 2.58 ± 0.22 | protein stability index (ubr1∆): 3.03 ± 0.14

NGGSEEEITCALDYLIP [MED7]
protein stability index (doa10∆): 3.45 ± 0.1 | protein stability index (pdr5∆): 3.45 ± 0.13 | protein stability index (san1∆): 3.44 ± 0.098 | protein stability index (ubr1∆): 3.35 ± 0.09

LSQPVSASKHEYSDNFP [SIR4]
protein stability index (doa10∆): 2.24 ± 0.084 | protein stability index (pdr5∆): 2.34 ± 0.046 | protein stability index (san1∆): 2.82 ± 0.071 | protein stability index (ubr1∆): 2.89 ± 0.046

TSFDIKREGRNELQEER [POP6]
protein stability index (doa10∆): 3.46 ± 0.12 | protein stability index (pdr5∆): 3.02 ± 0.15 | protein stability index (san1∆): 3.73 ± 0.11 | protein stability index (ubr1∆): 3.27 ± 0.07

KRQAYAVSEKAGHQTSA [RPL4A]
protein stability index (doa10∆): 2.14 ± 0.12 | protein stability index (pdr5∆): 1.4 ± 0.13 | protein stability index (san1∆): 1.65 ± 0.12 | protein stability index (ubr1∆): 2.34 ± 0.078

FSERAAMFAALQQKQQQ [SWI1]
protein stability index (doa10∆): 1.7 ± 0.042 | protein stability index (pdr5∆): 2.15 ± 0.042 | protein stability index (san1∆): 2.05 ± 0.078 | protein stability index (ubr1∆): 2.01 ± 0.027

TTDANGSKENYQELGSL [MED2]
protein stability index (doa10∆): 2.86 ± 0.097 | protein stability index (pdr5∆): 3.09 ± 0.081 | protein stability index (san1∆): 3.15 ± 0.049 | protein stability index (ubr1∆): 2.9 ± 0.075

LLKLTKVFIRESLSLKN [YML103C/NUP188]
protein stability index (doa10∆): 1.72 ± 0.1 | protein stability index (pdr5∆): 1.89 ± 0.12 | protein stability index (san1∆): 1.3 ± 0.22 | protein stability index (ubr1∆): 1.83 ± 0.17

TDSDFAKYHAKLNKKLQ [SRP68]
protein stability index (doa10∆): 2.97 ± 0.059 | protein stability index (pdr5∆): 3.12 ± 0.055 | protein stability index (san1∆): 2.84 ± 0.043 | protein stability index (ubr1∆): 3 ± 0.05

MAESLVDLEEVMDTIQE [SSN8]
protein stability index (pdr5∆): 3.02 ± 0.16 | protein stability index (san1∆): 3.2 ± 0.19 | protein stability index (ubr1∆): 3.2 ± 0.093

PLKLSGEGPFTVKFKHM [YMR129W/POM152]
protein stability index (doa10∆): 2.92 ± 0.064 | protein stability index (pdr5∆): 2.93 ± 0.064 | protein stability index (san1∆): 2.75 ± 0.086 | protein stability index (ubr1∆): 2.72 ± 0.076

ENRKKDESDSENDIEIK [YLR335W/NUP2]
protein stability index (doa10∆): 2.68 ± 0.1 | protein stability index (pdr5∆): 2.23 ± 0.15 | protein stability index (san1∆): 1.65 ± 0.12 | protein stability index (ubr1∆): 2.73 ± 0.082

QRLIFAGKQLEDGRTLS [RPS31]
protein stability index (doa10∆): 2.8 ± 0.12 | protein stability index (pdr5∆): 2.97 ± 0.078 | protein stability index (san1∆): 3.38 ± 0.067 | protein stability index (ubr1∆): 2.27 ± 0.12

EKSLLPKIETNVYVGMT [ISW2]
protein stability index (doa10∆): 2.92 ± 0.13 | protein stability index (pdr5∆): 2.97 ± 0.11 | protein stability index (san1∆): 3.07 ± 0.098 | protein stability index (ubr1∆): 3.2 ± 0.1

QISLNRLIDSMKQYSYL [RRI1]
protein stability index (doa10∆): 2.43 ± 0.23 | protein stability index (pdr5∆): 2.29 ± 0.16 | protein stability index (san1∆): 2.48 ± 0.17 | protein stability index (ubr1∆): 3.11 ± 0.12

GAKVKTMRRQKLTILQE [RET1]
protein stability index (doa10∆): 1.43 ± 0.088 | protein stability index (pdr5∆): 2.35 ± 0.06 | protein stability index (san1∆): 2.05 ± 0.14 | protein stability index (ubr1∆): 2.22 ± 0.086

PLNDGFVDLVEHFLKLN [YML103C/NUP188]
protein stability index (doa10∆): 1.84 ± 0.28 | protein stability index (pdr5∆): 1.63 ± 0.12 | protein stability index (ubr1∆): 2.53 ± 0.13

NLGSNVRNSFPLDEIPV [REC8]
protein stability index (doa10∆): 2.95 ± 0.074 | protein stability index (pdr5∆): 2.98 ± 0.13 | protein stability index (san1∆): 2.88 ± 0.087 | protein stability index (ubr1∆): 3.06 ± 0.058

FQVSNVISLGPNLATFI [YJL039C/NUP192]
protein stability index (doa10∆): 1.76 ± 0.14 | protein stability index (pdr5∆): 1.99 ± 0.11 | protein stability index (ubr1∆): 2.17 ± 0.054

GRSNEIVKTTTKQRLDA [PRP8]
protein stability index (doa10∆): 3.06 ± 0.073 | protein stability index (pdr5∆): 2.78 ± 0.11 | protein stability index (san1∆): 2.63 ± 0.13 | protein stability index (ubr1∆): 3.2 ± 0.052

FRKIKLRVDEVQGKNLL [RPS1A]
protein stability index (doa10∆): 2.96 ± 0.12 | protein stability index (pdr5∆): 3.48 ± 0.12 | protein stability index (san1∆): 2.93 ± 0.13 | protein stability index (ubr1∆): 3.36 ± 0.065

KDLVTENAYDNPLADAE [PRE4]
protein stability index (doa10∆): 3.11 ± 0.09 | protein stability index (pdr5∆): 3.34 ± 0.12 | protein stability index (san1∆): 3.32 ± 0.11 | protein stability index (ubr1∆): 3.21 ± 0.063

SAGAVFKSSVEMGKTDK [YOR098C/NUP1]
protein stability index (doa10∆): 3.5 ± 0.095 | protein stability index (pdr5∆): 3.25 ± 0.1 | protein stability index (san1∆): 3.29 ± 0.058 | protein stability index (ubr1∆): 3.47 ± 0.047

AKTLIPSLNNKISDDEL [RPB4]
protein stability index (doa10∆): 2.98 ± 0.069 | protein stability index (pdr5∆): 3.1 ± 0.069 | protein stability index (san1∆): 3.06 ± 0.06 | protein stability index (ubr1∆): 3.19 ± 0.061

ETFSTSAHQSPIMQTQM [SNF2]
protein stability index (doa10∆): 3.17 ± 0.077 | protein stability index (pdr5∆): 2.8 ± 0.072 | protein stability index (san1∆): 3.28 ± 0.062 | protein stability index (ubr1∆): 3.15 ± 0.04

QMIELNRQICLVQKTVQ [GRR1]
protein stability index (doa10∆): 3.03 ± 0.1 | protein stability index (pdr5∆): 2.56 ± 0.055 | protein stability index (san1∆): 2.5 ± 0.063 | protein stability index (ubr1∆): 2.09 ± 0.055

YVLYAKIVVLSRTGPVF [RRP43]
protein stability index (doa10∆): 1.29 ± 0.097 | protein stability index (pdr5∆): 1.15 ± 0.077 | protein stability index (san1∆): 1.11 ± 0.16 | protein stability index (ubr1∆): 1.19 ± 0.06

KQQDAEELFTQLFHSMS [UBP6]
protein stability index (doa10∆): 3.25 ± 0.059 | protein stability index (pdr5∆): 3.31 ± 0.088 | protein stability index (san1∆): 3.03 ± 0.088 | protein stability index (ubr1∆): 3.14 ± 0.061

VVVAETSPEKKDGGDKP [YAR002W/NUP60]
protein stability index (doa10∆): 2.85 ± 0.19 | protein stability index (pdr5∆): 3.23 ± 0.24 | protein stability index (san1∆): 2.72 ± 0.13 | protein stability index (ubr1∆): 3.44 ± 0.2

PADRPQGRRNSRNFSTR [SIR4]
protein stability index (doa10∆): 3.02 ± 0.11 | protein stability index (pdr5∆): 3.21 ± 0.074 | protein stability index (san1∆): 3.1 ± 0.071 | protein stability index (ubr1∆): 3.15 ± 0.074

NGVVKKAAAGAGSAALK [RPO31]
protein stability index (doa10∆): 3.51 ± 0.13 | protein stability index (pdr5∆): 3.11 ± 0.27 | protein stability index (san1∆): 3.47 ± 0.12

VLIDLLNWFRTTNMNVN [RGR1]
protein stability index (doa10∆): 2.9 ± 0.11 | protein stability index (pdr5∆): 1.66 ± 0.068 | protein stability index (san1∆): 3.19 ± 0.096 | protein stability index (ubr1∆): 1.92 ± 0.093

LEKERSILDDIKLSLKD [SMC4]
protein stability index (pdr5∆): 2.85 ± 0.14 | protein stability index (san1∆): 2.43 ± 0.17 | protein stability index (ubr1∆): 2.91 ± 0.11

PLVLLQQIPLLCYMAPM [POP3]
protein stability index (doa10∆): 1.72 ± 0.053 | protein stability index (pdr5∆): 1.59 ± 0.061 | protein stability index (san1∆): 1.85 ± 0.074 | protein stability index (ubr1∆): 1.92 ± 0.054

ELIKNYITARIMAKRPF [FAS1]
protein stability index (doa10∆): 2.93 ± 0.13 | protein stability index (pdr5∆): 2.58 ± 0.26 | protein stability index (san1∆): 3.03 ± 0.046 | protein stability index (ubr1∆): 2.78 ± 0.21

VPRTADRSASRAVFLFR [RPC82]
protein stability index (pdr5∆): 3.53 ± 0.2 | protein stability index (ubr1∆): 3.04 ± 0.17

LETDGVNLSEVMTVPGI [RPO21]
protein stability index (doa10∆): 2.75 ± 0.19 | protein stability index (pdr5∆): 3.36 ± 0.21 | protein stability index (san1∆): 3.03 ± 0.13 | protein stability index (ubr1∆): 3.34 ± 0.14

NVDKNLNEIKEHKIVVL [RPN14]
protein stability index (doa10∆): 2.39 ± 0.085 | protein stability index (pdr5∆): 2.38 ± 0.069 | protein stability index (san1∆): 2.42 ± 0.1 | protein stability index (ubr1∆): 2.74 ± 0.1

DGGKTLRACAANVDQIS [YMR129W/POM152]
protein stability index (doa10∆): 2.15 ± 0.13 | protein stability index (pdr5∆): 2.94 ± 0.11 | protein stability index (san1∆): 2.94 ± 0.13 | protein stability index (ubr1∆): 2.37 ± 0.11
